Data: patent publication US6518401B2, “Tumor necrosis factor stimulated gene 6 (TSG-6) protein” (New York University, priority 1991, dated 2003)

Columns and labels:
[1] = Stability of the TSG-6/IαI complex to denaturants and enzymes; assay type: physicochemical
Description: 100 μL of a TN-5 B insect cell culture supernatant containing TSG-6 protein was incubated with 100 μL of a 1:50 dilution of human serum for 1 hr. at 37° C. Thereafter, one 100-μL aliquot was mixed with 2 mL of 8 M urea and concentrated in a Centricon-10 unit to 100 μL (lane 2); the other aliquot was left untreated (lane 1). The reaction mixtures were then separated by SDS-PAGE and subjected to Western blot analysis with anti-TSG-6 antibody.
Partially purified IαI was incubated in the absence (lane 1) or presence of purified TSG-6 protein (lanes 3-5) at 37° C. for 1 hr. The sample containing both IαI and TSG-6 protein was divided into aliquots and further incubated without enzyme (lane 3), with 800 milliunits of chondroitin sulfate ABC lyase (lane 4), or with 1.6 units of hyaluronidase (lane 5). Lane 2 is a TSG-6 control without IαI. The reaction mixtures were separated by SDS-PAGE and analyzed by Western blotting with anti-TSG-6 antibody.
The Stable Crosslink in the TSG-6/IαI COmplex is Provided by a Gylcosaminoglycan Chain. The stability of the 120 kDa TSG-6/IαI complex during SDS-PAGE under reducing conditions raises the question of the nature of the interaction between TSG-6 and the other components of the complex.
It is known that the three polypeptide chains of IαI are cross-linked by a chondroitin sulfate chain (Enghild et al, J. Biol. Chem. 264:15975-15981 (1989); Jenssen et al, FEBS Lett. 230:195-200 (1988); Balduyck et al, Biol. Chem. Hoppe-Seyler 370:329-336 (1989). It has been shown that bikunin, HC2 of IαLI, and HC3 of pre-α-inhibitor (PαI) are covalently bound to chondroitin 4-sulfate (Enghild et al, J. Biol. Chem. 264:15975-15981 (1989); J. Bio. Chem. 266:747-751 (1991); J. Biol. Chem. 268:8711-8716 (1993). To determine if cross-linking via chondroitin sulfate is also required for the stability of the TSG-6/IαI complex, purified TSG-6 protein and IαI were first incubated together to allow the formation of the complex and then treated with chondroitin sulfate ABC lyase from Proteus vulgaris or hyaluronidase from Streptomyces hyalurolyticus.

[2] = Binding of TSG-6 protein to hyaluronic acid coupled to Sepharose (Western blot); parameters: species or system bovine
Description: To analyze the hyaluronic acid binding properties of the TSG-6 protein, hyaluronic acid was coupled to Sepharose (HA-Sepharose) to be used as a matrix for affinity chromatography.
To couple hyaluronic acid to Sepharose, 100 mg hyaluronic acid from bovine trachea (Sigma Chemicals) was dialyzed extensively against 0.5 M NaCl. Five ml EAH-Sepharose 4 B (Pharmacia) was washed extensively with 0.5 M NaCl and mixed with the hyaluronic acid solution. The pH was adjusted to 4.5 and 40 mg 1-(3-dimethylaminopropyl)-3-ethylcarbodiimide hydrochloride (Aldrich Chem. Co.), dissolved in 1 ml distilled water, was added dropwise under constant stirring. The pH was kept at 4.5 for 1 hr. After constantly stirring the reaction mixture overnight, 200 μl acetic acid were added for another 4 hr to block the remaining amino groups on the EAH-Sepharose. […]
To show the binding of TSG-6 protein to HA-Sepharose but not to a similarly activated and blocked control Sepharose matrix, concentrated serum-free supernatant of GSV-L5 cells was used. […] Thereafter, the supernatants were removed and analyzed by Western blotting with anti-TSG-6 antibody. […] After vigorous shaking and centrifugation the supernatants were removed, dialyzed against Tris buffered saline and analyzed by Western blotting (FIG. 15). […]

[3] = test system: TSG-6 binding protein in serum; experiment: TSG-6 binding to carrier protein in sera (120-kDa complex, Western blot); conditions: recombinant human TSG-6 incubated with human, fetal bovine, rabbit, or mouse serum, 37° C.
Description: (§1) Analysis of TSG-6 Binding to Carrier Protein. To determine the presence of TSG-6 binding protein, samples to be analyzed were mixed with an equal volume of TSG-6-containing serum-free supernatants of TN-5 B insect cells infected with recombinant Baculovirus and incubated at 37° C. for 30-60 min. (Purified TSG-6 protein was used in some experiments, as indicated.) Thereafter, the mixtures were analyzed for the presence of the 120-kDa complex by Western blotting with purified rabbit antibody to TSG-6 as described earlier (Wisniewski et al, J. Immunol. 151:6593-6601 (1993)). For detection of inter-α-inhibitor (IαI) epitopes by Western blotting, membranes were incubated with a rabbit anti-human IαI antibody (Dako) at a 1:2000 dilution for 1 hr.
Binding of TSG-6 Protein to a Protein Present in Mammalian Sera and in Supernatants of Human HepG-2 Hepatoma Cells. […] Recombinant human TSG-6 protein produced in insect cells migrates somewhat faster than the 35-kDa TSG-6 protein from human cells (Wisniewski et al, J. Immunol. 151:6593-6601 (1993)) possibly due to s different extent of glycosylation. […] When TSG-6 containing culture upernatants were incubate at 37° C. in the presence of fetal bovine serum (lane 3), mouse serum (lane 7), or serum-free culture supernatant of human HepG-2 hepatoma cells (lane 5), an additional 120-kDa band became readily apparent. […]

[4] = target: T1, IαI purified from human serum (Homo sapiens, UniProt P02760+P19823); experiment: TSG-6/IαI complex formation with purified proteins (SDS-PAGE, Western blot); assay type: binding
T1 construct: IαI is a complex protein in which the bikunin chain is linked to HC1 and HC2; supposed to determine the cleavage site for the C-terminal propeptide; from tissue; host or cells: human serum
Description: Purified recombinant TSG-6 protein (lane 1) and IαI purified from human serum (lane 2) were mixed and incubated for 2 min. (lane 3), 5 min. (lane 4), 10 min. (lane 5), 15 min. (lane 6), 30 min. (lane 7), or for 60 min. (lane 8) at 37° C. or for 60 min. at 0° C. (lane 9). The reaction mixtures were then separated by SDS-PAGE and subjected to Western blot analysis with rabbit anti-TSG-6 serum.
Four micrograms of purified IαI and 3 μg of purified TSG-6 protein were incubated separately for 16 hrs. at 37° C. in the absence or presence of 30 milliunits of chondroitin sulfate ABC lyase. Thereafter, control IαI was mixed with control TSG-6 protein (lane 1), chonroitinase-pretreated IαI was mixed with control TSG-6 (lane 2), and control IαI was reaction mixtured with chondroitinase-pretreated TSG-6 protein (lane 3). The reaction mixtures were incubated for 1 hr. at 37° C. before SDS-PAGE and Western blot analysis with anti-TSG-6 antibody.
as §1
Purification of IαI from Human Serum. IαI purified from human serum, according to Salier et al, Anal Biochem. 109:273-283 (1980), with some modifications. FPLC on Q Sepharose Fast Flow was used instead of DEAE-Sephacel chromatography. Chelating Sepharose Fast Flow was used for zinc chelate chromatography. Phenyl Superose was used for Hydrophobic chromatography and Superdex 200 was used for size-exclusion chromatography instead of Sephacryl-300. The IαI recovered was essentially pure as judged by SDS-PAGE and silver staining.
Rapid Complex Formation between Recombinant TSG-6 Protein and IαI Purified from Human Serum at 37° C. The 120kDa TSG-6/IαI complex formed readily when purified TSG-6 protein and purified IαI were incubated together at 37° C. but not at 0° C. […] This IαI derivative appears to be a by product of the reaction of TSG-6 with IαI. It should be noted that the 120kDa TSG-6/IαI complex is formed by purified TSG-6 and IαI proteins in the apparent absence of other proteins.
Chondroitin Sulfate Associated with IαI Is Required for the Formation of the TSG-6/IαI Complex. […]

[5] = purified TSG-6 protein and purified IαI, 37° C.

T1 sequence (P02760 206-352 limits assumed): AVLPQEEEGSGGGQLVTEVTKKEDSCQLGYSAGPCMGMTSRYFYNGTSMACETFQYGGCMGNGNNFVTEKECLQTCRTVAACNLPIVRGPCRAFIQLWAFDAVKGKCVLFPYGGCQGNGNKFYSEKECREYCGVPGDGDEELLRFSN
T1 sequence (P19823 55-702 limits assumed): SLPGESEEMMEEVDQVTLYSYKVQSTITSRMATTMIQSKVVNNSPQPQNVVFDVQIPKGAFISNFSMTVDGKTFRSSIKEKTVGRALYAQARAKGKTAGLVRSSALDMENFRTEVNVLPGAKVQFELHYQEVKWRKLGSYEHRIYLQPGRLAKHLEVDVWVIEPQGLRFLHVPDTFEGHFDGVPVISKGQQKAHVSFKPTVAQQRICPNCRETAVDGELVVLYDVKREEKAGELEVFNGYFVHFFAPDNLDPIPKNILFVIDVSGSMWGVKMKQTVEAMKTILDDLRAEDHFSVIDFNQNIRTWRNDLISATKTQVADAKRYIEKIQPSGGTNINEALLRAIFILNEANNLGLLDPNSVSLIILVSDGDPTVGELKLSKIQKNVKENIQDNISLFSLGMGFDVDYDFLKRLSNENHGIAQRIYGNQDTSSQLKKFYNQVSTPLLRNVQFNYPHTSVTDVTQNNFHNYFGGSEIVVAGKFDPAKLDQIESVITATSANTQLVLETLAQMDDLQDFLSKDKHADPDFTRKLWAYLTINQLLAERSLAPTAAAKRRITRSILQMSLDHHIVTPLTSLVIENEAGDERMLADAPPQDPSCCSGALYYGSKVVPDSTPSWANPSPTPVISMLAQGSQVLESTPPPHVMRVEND
T1 sequence (P98066 18-277 partner): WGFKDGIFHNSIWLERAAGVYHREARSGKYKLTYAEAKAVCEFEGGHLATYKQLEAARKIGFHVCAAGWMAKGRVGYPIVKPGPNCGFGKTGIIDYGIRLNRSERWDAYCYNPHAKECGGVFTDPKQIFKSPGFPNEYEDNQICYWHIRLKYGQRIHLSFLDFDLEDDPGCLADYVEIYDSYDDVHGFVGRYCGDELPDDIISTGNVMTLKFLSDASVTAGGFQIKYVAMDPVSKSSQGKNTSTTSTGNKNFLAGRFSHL

Substance | stability of the 120-kDa complex to 8 M urea ([1]; 8 M urea added before SDS-PAGE) | stability of the complex to boiling in 2% SDS and 5% β-mercaptoethanol ([1]; SDS-PAGE under reducing conditions) | effect of chondroitin sulfate ABC lyase on the complex ([1]; preformed complex treated with chondroitin sulfate ABC lyase from Proteus vulgaris) | effect of hyaluronidase on the complex ([1]; preformed complex treated with hyaluronidase from Streptomyces hyalurolyticus) | stability of the complex to 8 M guanidine hydrochloride ([1]; treatment with 8 M guanidine hydrochloride, Western blot) | binding of TSG-6 protein to HA-Sepharose ([2]; concentrated serum-free GSV-L5 culture supernatant, overnight at 4° C., elution with 3 M NaCl) | binding of TSG-6 protein to control Sepharose matrix ([2]; control Sepharose without hyaluronic acid, same procedure) | complex formation on incubation with serum [3] | ability to form the TSG-6/IαI complex after pretreatment of the protein with chondroitin sulfate ABC lyase ([4]; preincubated 16 hrs. at 37° C. with chondroitinase, then mixed with the untreated partner protein) | TSG-6/IαI complex formation at 0° C. ([4]; purified TSG-6 protein and purified IαI, 0° C., within 1 hr.) | time until TSG-6/IαI complex formation detectable [4, 5] [min] | time until complex formation reaction appeared complete [4, 5] [min]
TSG-6/IαI complex: stable 120 kDa complex containing TSG-6 protein, bikunin and HC2 of IαI | did not affect | resistance | complete disappearance of the complex | no effect | still detectable |  |  |  |  |  |  | 
TSG-6 protein: cytokine-induced protein or glycoprotein, amino acid sequence SEQ ID NO:2; from GSV-L5 cells or Baculovirus-infected insect cells |  |  |  |  |  | bound virtually all the TSG-6 protein | did not bind any detectable TSG-6 protein | readily incorporated into a stable 120 kDa complex | little effect | little or no TSG-6/IαI complex was formed | ≤ 2 | ≤ 10
